24 molecules from patent publication US20180298070A1, “PEPTIDE COMPOUND” (Takeda Pharmaceutical Company Limited, published 2018) can be followed below.

Test [1] deals with T1, human GLP-1R (human), P43220.
T1 chain: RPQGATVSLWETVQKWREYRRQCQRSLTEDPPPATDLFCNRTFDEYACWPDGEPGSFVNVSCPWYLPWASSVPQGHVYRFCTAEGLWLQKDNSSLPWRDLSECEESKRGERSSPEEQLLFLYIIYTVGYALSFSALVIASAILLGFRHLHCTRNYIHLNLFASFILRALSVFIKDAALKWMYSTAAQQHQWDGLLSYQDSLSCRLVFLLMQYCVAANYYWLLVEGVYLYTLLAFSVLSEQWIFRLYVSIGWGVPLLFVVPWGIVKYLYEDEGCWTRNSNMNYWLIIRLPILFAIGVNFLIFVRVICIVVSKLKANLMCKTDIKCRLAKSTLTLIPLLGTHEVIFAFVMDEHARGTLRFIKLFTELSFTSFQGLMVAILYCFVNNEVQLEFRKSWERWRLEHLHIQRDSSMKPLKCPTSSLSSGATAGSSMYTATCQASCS

Test [2] has as its target T2, human GIPR (human), P48546.
T2 chain: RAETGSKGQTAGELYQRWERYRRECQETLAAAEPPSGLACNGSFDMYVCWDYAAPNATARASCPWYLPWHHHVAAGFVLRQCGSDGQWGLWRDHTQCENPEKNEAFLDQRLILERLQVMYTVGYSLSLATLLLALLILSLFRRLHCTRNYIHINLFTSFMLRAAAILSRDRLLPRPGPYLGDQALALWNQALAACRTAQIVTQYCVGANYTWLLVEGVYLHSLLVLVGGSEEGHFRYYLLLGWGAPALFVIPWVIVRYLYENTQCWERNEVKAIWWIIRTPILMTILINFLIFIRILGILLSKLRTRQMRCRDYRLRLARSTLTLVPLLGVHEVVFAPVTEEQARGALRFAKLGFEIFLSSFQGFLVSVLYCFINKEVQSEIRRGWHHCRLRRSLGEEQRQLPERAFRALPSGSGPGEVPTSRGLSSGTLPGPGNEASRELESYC

In test [3] the target is T2, human GIPR (human), P48546. Briefly: [125I]GIP displacement, hGIPR VLP.
The target of the next test is human GLP-1R (human, UniProt P43220). Put plainly: cell-based or functional assay.

Starred links: 1 amine or outer side, 2 acyl side, 3 side chain; linkers in the order of their positions; H or OH if unused. Non-standard residues stand in square brackets, D forms with d. Groups on a side chain read outwards from the residue. Primed or numbered codes have the meaning given here. No end group written: not given here. *: point of attachment. C20 diacid = O=C(O)CCCCCCCCCCCCCCCCCCC(=O)*; γGlu = O=C(O)[C@H](CCC(=O)[*:2])N[*:1]; NMeY = CN[C@@H](Cc1ccc(O)cc1)C(=O)O; αMeF = C[C@](N)(Cc1ccccc1)C(=O)O; Lauroyl = CCCCCCCCCCCC(=O)*; dIva = CC[C@@](C)(N)C(=O)O; Iva = CC[C@](C)(N)C(=O)O; PEG2′ = not defined here; PEG3′ = not defined here; Aib = CC(C)(N)C(=O)O Where only a bound is given, the exact number is not on record here.

For the molecule Y[Aib]EGTFISDYSK([PEG(2)-Lauroyl])ALDR[Aib]AQQDFVNWLLAQRPSSGAPPPS (ends and bridges not checked) [Compound 205], the Agonist activity (EC50, M) in test [1] came out at 2.9e-08 M; in test [2], 3.4e-12 M. The half-inhibitory concentration (IC50) (as a rule, the concentration at which inhibition is half-maximal) in test [3] was found to be 1.6 nM.
On to [NMeY][Aib]EGTFISDYSIALDRIAQ[Aib]N[αMeF]VNWLLAQRPSSGAPPPSR (not fully specified (C-terminus); ends and bridges not checked) [Compound 72], for which the Agonist activity (EC50, M) stood at 2.3e-07 M in test [1] and 2.6e-12 M in test [2]. In addition, the 50% inhibitory concentration (IC50) in test [3] was 2.7 nM.
Consider [NMeY][Aib]EGTFISDYSI[dIva]LDRIAQ[Aib]NFVNW[Iva]LAQRPSSGAPPPSR (ends and bridges not checked) [Compound 92], for which the Agonist activity (EC50, M) in test [1] is more than 1e-06 M; in test [2] it was 1.3e-12 M. The IC50 in test [3] amounted to 2.3 nM.
Turning to Y[Aib]EGTFISDYSK([PEG(2)-Lauroyl])ALDRIAQ[Aib]NFVNWLLAQRPSSGAPPPS (ends and bridges not checked) [Compound 204], the Agonist activity (EC50, M) worked out at 9.5e-09 M in test [1] and 8.1e-12 M in test [2]. This molecule gave an IC50 in test [3] of 2.6 nM.
The corresponding values for Y[Aib]EGTFISDYSK([PEG2′-Lauroyl])ALDR[Aib]HQ[Aib]NFVNW[Iva]LAQRPSSGAPPPS (not fully specified (C-terminus); ends and bridges not checked) [Compound 215] are 1.5e-07 M, 2.8e-12 M and 2.8 nM.
Regarding [NMeY][Aib]EGTFISDYSIALDRIAQ[Aib]NFVNW[Iva]LAQRPSSGAPPPSR (not fully specified (C-terminus); ends and bridges not checked) [Compound 68], the Agonist activity (EC50, M) in test [1] was found to be 3.5e-07 M; in test [2], 1.7e-12 M. This molecule showed an IC50 in test [3] of 2.4 nM.
Y[Aib]EGTFISDYSIALDRK([PEG(2)-Pal])HQ[Aib]NFVNW[Iva]LAQRPSSGAPPPS (not fully specified (C-terminus); ends and bridges not checked) [Compound 240]: the Agonist activity (EC50, M) in test [1] stood at 5.8e-09 M; in test [2], 3e-12 M. In test [3], this molecule gave a half-maximal inhibitory concentration (IC50) of 2.4 nM.
For [NMeY][Aib]EGTFISDYSI[dIva]LDR[Aib]AQQDFVNWLLAQRPSSGAPPPSR (ends and bridges not checked) [Compound 79], the results for the Agonist activity (EC50, M) in test [1] and in test [2] were more than 1e-06 M and 1.1e-12 M, respectively. This molecule yielded an IC50 in test [3] of 1.2 nM.
As for Y[Aib]EGTFISDYSIALDRK([PEG3′-PEG3′-γGlu-C20 diacid])HQQDFVNWLLAQRPSSGAPPPS (not fully specified (C-terminus); ends and bridges not checked) [Compound 237], the Agonist activity (EC50, M) in test [1] was more than 1e-06 M; in test [2] it was 1.6e-10 M. In test [3], this molecule yielded an IC50 of 110 nM.
As for Y[Aib]EGTFISDYSK([PEG(2)-Lauroyl])ALDRIAQQSFVNWLLAQRPSSGAPPPS (ends and bridges not checked) [Compound 203], the Agonist activity (EC50, M) is more than 1e-06 M in test [1] and 4.3e-12 M in test [2]. In test [3], this molecule came in with an IC50 of 2.1 nM.
With [NMeY][Aib]EGTFISDYSIALDRIAQQS[αMeF]VNWLLAQRPSSGAPPPSR (not fully specified (C-terminus); ends and bridges not checked) [Compound 71], the Agonist activity (EC50, M) is more than 1e-06 M in test [1] and 2.5e-12 M in test [2]. In test [3], this molecule yielded an IC50 of 2.1 nM.
Consider Y[Aib]EGTFISDYSK([PEG3′-PEG3′-γGlu-C20 diacid])ALDRIHQQDFVNWLLAQRPSSGAPPPS (not fully specified (C-terminus); ends and bridges not checked) [Compound 238], for which the values for the Agonist activity (EC50, M) in test [1] and in test [2] were more than 1e-06 M and 8.3e-11 M, respectively. Further, the half-maximal inhibitory concentration (IC50) in test [3] came to 43 nM.
With Y[Aib]EGTFISDYSK([PEG(2)-Lauroyl])ALDRIHQQS[αMeF]VNW[Iva]LAQRPSSGAPPPS (not fully specified (C-terminus); ends and bridges not checked) [Compound 223], the values for the Agonist activity (EC50, M) in test [1] and in test [2] were more than 1e-06 M and 5.1e-12 M, respectively. In test [3], this molecule came in with a half-maximal inhibitory concentration (IC50) of 3 nM.

B1: Compound 415 (peptide)
peptide: YXEGTXISDYSIXXDRXAQXNFVNWXLAQR
modifications: N-methyl on Tyr1 (MeTyr); Aib at 2, 13, 17, 20; Iva at 6, 26; Lys(Oda-GGGGG-) at 14; C-terminal NH2
For the molecule B1, the “Agonist activity (EC50, M)” value with human GLP-1R is more than 1e-06 M.
As for Y[Aib]EGTFISDYSK([PEG2′-Lauroyl])ALDRIAQQS[αMeF]VNW[Iva]LAQRPSSGAPPPS (not fully specified (C-terminus); ends and bridges not checked) [Compound 221], the Agonist activity (EC50, M) was more than 1e-06 M in test [1] and 7.1e-12 M in test [2]. Besides, the 50% inhibitory concentration (IC50) in test [3] is 3 nM.
For Y[Aib]EGTFISDYSK([PEG2′-Lauroyl])ALDRIAQQSFVNW[Iva]LAQRPSSGAPPPS (not fully specified (C-terminus); ends and bridges not checked) [Compound 220], the Agonist activity (EC50, M) came out at 9.9e-08 M in test [1] and 5.3e-12 M in test [2]. This molecule also returned an IC50 in test [3] of 2.9 nM.
In the case of Y[Aib]EGTFISDYSIALDRK([PEG(2)-dodec])HQQDFVNWLLAQRPSSGAPPPS (not fully specified (C-terminus); ends and bridges not checked) [Compound 232], the Agonist activity (EC50, M) in test [1] was more than 1e-06 M; in test [2], 3.2e-12 M. In test [3], this molecule had an IC50 of 2.1 nM.
In the case of Y[Aib]EGTFISDYSK([PEG(2)-Lauroyl])ALDRIAQ[Aib]NFVNWLLAQRPSSGAPPPSR (ends and bridges not checked) [Compound 197], the Agonist activity (EC50, M) was 1.1e-08 M in test [1] and 5.6e-12 M in test [2]. The half-inhibitory concentration (IC50) in test [3] came out at 2.6 nM.
For Y[Aib]EGTFISDYSK([PEG(2)-Lauroyl])[dIva]LDRIAQQDFVNWLLAQRPSSGAPPPSR (ends and bridges not checked) [Compound 199], the Agonist activity (EC50, M) is more than 1e-06 M in test [1] and 3.4e-11 M in test [2]. Also, the IC50 in test [3] came out at 2.4 nM.
In the case of Y[Aib]EGTFISDYSK([PEG(2)-Lauroyl])ALDRIHQQSFVNW[Iva]LAQRPSSGAPPPS (not fully specified (C-terminus); ends and bridges not checked) [Compound 222], the Agonist activity (EC50, M) in test [1] was more than 1e-06 M; in test [2] it was 3.7e-12 M. The IC50 in test [3] was 2.9 nM.
The corresponding values for Y[Aib]EGTFISDYSIALDRK([PEG(2)-C20 diacid])HQQDFVNWLLAQRPSSGAPPPS (not fully specified (C-terminus); ends and bridges not checked) [Compound 234] are more than 1e-06 M, 1.5e-10 M and 82 nM.

B2: Compound 435 (peptide)
peptide: YXEGTXISDYSIXXDRXAQXNFVNWXLAQRPSSGAPPPS
modifications: N-terminal acetyl (Ac-Tyr); Aib at 2, 13, 17, 20; Iva at 6, 26; Lys(Eda-GGGGG-) at 14; C-terminal NH2
As to B2, the “Agonist activity (EC50, M)” value in the test with human GLP-1R was more than 1e-06 M.

B3: Compound 439 (peptide)
peptide: YXEGTXISDYSIXXDRXAQXNFVNWXLAQRPSSGAPPPS
modifications: N-methyl on Tyr1 (Me-Tyr); Aib at 2, 13, 17, 20; Iva at 6, 26; Lys(Oda-GGGGGG-) at 14; C-terminal NH2
Take B3: the “Agonist activity (EC50, M)” value in the test with human GLP-1R is more than 1e-06 M.

B4: Compound 441 (peptide)
peptide: YXEGTXISDYSIXXDRXAQXNFVNWXLAQRPSSGAPPPS
modifications: not fully specified; N-methyl on Tyr1 (MeTyr); Aib at 2, 13, 17, 20; Iva at 6, 26; Lys(Oda-GGGGG-) at 14; C-terminal OH
For B4, the “Agonist activity (EC50, M)” value with human GLP-1R was more than 1e-06 M.
